Experimental data reported in the Immune Epitope Database (IEDB).

Assays:
[1] = target: HLA-A*68:02; test: IEDB peptide-MHC binding, cellular MHC/competitive/fluorescence; ≥ and ≤ were set here for values at or beyond the usual limits of such assays
[2] = target: HLA-A*02:01; test: IEDB peptide-MHC binding, purified MHC/competitive/radioactivity; ≥ and ≤ were set here for values at or beyond the usual limits of such assays
[3] = target: HLA-A*02:02; test: as above
[4] = target: HLA-A*02:03; test: as above
[5] = target: HLA-A*02:06; test: as above
[6] = target: HLA-A*02:01; test: IEDB peptide-MHC binding, cellular MHC/competitive/fluorescence; ≥ and ≤ were set here for values at or beyond the usual limits of such assays
[7] = target: HLA-A*68:02; test: IEDB peptide-MHC binding, purified MHC/competitive/radioactivity; ≥ and ≤ were set here for values at or beyond the usual limits of such assays
[8] = source organism: Vaccinia virus WR
[9] = source organism: Mammarenavirus whitewaterense
[10] = source organism: Influenza A virus
[11] = source organism: Hepacivirus hominis
[12] = source organism: Mammarenavirus choriomeningitidis

## IMRNFLRSI
[1]; [8]
  IC50: 62700 nM
[2]; [8]
  IC50: 2060 nM
[3]; [8]
  IC50: 485 nM
[4]; [8]
  IC50: 0.4 nM
[5]; [8]
  IC50: 3920 nM

## QVLQQNNSFI
[1]; [8]
  IC50: 9960 nM
[2]; [8]
  IC50: 1470 nM
[3]; [8]
  IC50: 544 nM
[4]; [8]
  IC50: 3180 nM
[5]; [8]
  IC50: 2320 nM

## ALLADKFPV
[1]; source organism: SARS-CoV1
  IC50: 12900 nM
[2]; source organism: SARS-CoV1
  IC50: 1.7 nM
[3]; source organism: SARS-CoV1
  IC50: 29 nM
[4]; source organism: SARS-CoV1
  IC50: 604 nM
[5]; source organism: SARS-CoV1
  IC50: 23 nM

## CLTVPNITI
[1]; [8]
  IC50: 8000 nM
[2]; [8]
  IC50: 1190 nM
[3]; [8]
  IC50: 96 nM
[4]; [8]
  IC50: 75 nM
[5]; [8]
  IC50: 1660 nM

## LALTDVEKRI
[1]; [8]
  IC50: 14900 nM
[2]; [8]
  IC50: 1420 nM
[3]; [8]
  IC50: 199 nM
[4]; [8]
  IC50: 403 nM
[5]; [8]
  IC50: 2410 nM

## LLLSICLGSL
[1]; source organism: SARS-CoV1
  IC50: 54900 nM
[2]; source organism: SARS-CoV1
  IC50: 45 nM
[3]; source organism: SARS-CoV1
  IC50: 20 nM
[4]; source organism: SARS-CoV1
  IC50: 104 nM
[5]; source organism: SARS-CoV1
  IC50: 258 nM

## YNLSLSAAV
[1]; [9]
  IC50: ≥ 70000 nM
[2]; [9]
  IC50: 255 nM
[3]; [9]
  IC50: 868 nM
[4]; [9]
  IC50: 1150 nM
[5]; [9]
  IC50: 1660 nM

## ILGFVFTL
[1]; [10]
  IC50: ≥ 70000 nM
[2]; [10]
  IC50: 1.2 nM

## RLIDFLKDV
[1]; [10]
  IC50: 31500 nM
[3]; [10]
  IC50: 16 nM
[4]; [10]
  IC50: 7.3 nM
[5]; [10]
  IC50: 65 nM

## AMWLLLLSI
[1]; source organism: SARS-CoV1
  IC50: 27700 nM
[3]; source organism: SARS-CoV1
  IC50: 357 nM
[4]; source organism: SARS-CoV1
  IC50: 205 nM
[5]; source organism: SARS-CoV1
  IC50: 268 nM

## DVNSVQFSIL
[6]; [8]
  IC50: 6660 nM
[3]; [8]
  IC50: 2270 nM
[4]; [8]
  IC50: 1660 nM
[5]; [8]
  IC50: 3400 nM
[7]; [8]
  IC50: 2770 nM

## ETMYLTMKAI
[6]; [8]
  IC50: 6580 nM
[3]; [8]
  IC50: 1320 nM
[4]; [8]
  IC50: 25 nM
[5]; [8]
  IC50: 3580 nM
[7]; [8]
  IC50: 4 nM

## VLPFDIKYI
[1]; [8]
  IC50: 9870 nM
[3]; [8]
  IC50: 135 nM
[4]; [8]
  IC50: 9.7 nM
[5]; [8]
  IC50: 506 nM

## SIAMLKSKNI
[6]; [8]
  IC50: 14000 nM
[3]; [8]
  IC50: 1090 nM
[4]; [8]
  IC50: 55 nM
[5]; [8]
  IC50: 259 nM
[7]; [8]
  IC50: 2100 nM

## MMMNWSPTT
[1]; [11]
  IC50: 17900 nM
[3]; [11]
  IC50: 311 nM
[4]; [11]
  IC50: 106 nM
[5]; [11]
  IC50: 1230 nM

## NIKISLNEIL
[6]; [8]
  IC50: 9630 nM
[3]; [8]
  IC50: 705 nM
[4]; [8]
  IC50: 1390 nM
[5]; [8]
  IC50: 557 nM
[7]; [8]
  IC50: 1610 nM

## KTPDYPLIDI
[6]; [8]
  IC50: 5550 nM
[3]; [8]
  IC50: 1120 nM
[4]; [8]
  IC50: 249 nM
[5]; [8]
  IC50: 725 nM
[7]; [8]
  IC50: 1250 nM

## YVIRHVDGKI
[6]; [8]
  IC50: 8590 nM
[3]; [8]
  IC50: 621 nM
[4]; [8]
  IC50: 114 nM
[5]; [8]
  IC50: 522 nM
[7]; [8]
  IC50: 22 nM

## TITTFIPISA
[6]; [8]
  IC50: 9690 nM
[3]; [8]
  IC50: 4060 nM
[4]; [8]
  IC50: 176 nM
[5]; [8]
  IC50: 4840 nM
[7]; [8]
  IC50: 304 nM

## YAGTIKESL
[6]; [8]
  IC50: 21100 nM
[3]; [8]
  IC50: 2070 nM
[4]; [8]
  IC50: 2490 nM
[5]; [8]
  IC50: 3300 nM
[7]; [8]
  IC50: 361 nM

## STAEQLSKYV
[6]; [8]
  IC50: 8210 nM
[3]; [8]
  IC50: 1060 nM
[4]; [8]
  IC50: 1870 nM
[5]; [8]
  IC50: 697 nM
[7]; [8]
  IC50: 28 nM

## GLISLILQI
[1]; [10]
  IC50: 12400 nM
[3]; [10]
  IC50: 27 nM
[4]; [10]
  IC50: 5.4 nM
[5]; [10]
  IC50: 205 nM

## LLGCIITSL
[1]; [11]
  IC50: ≥ 70000 nM
[3]; [11]
  IC50: 79 nM
[4]; [11]
  IC50: 121 nM
[5]; [11]
  IC50: 3130 nM

## GLIYNRMGA
[6]; [10]
  IC50: 16700 nM
[1]; [10]
  IC50: ≥ 70000 nM

## IAIFNNRNLA
[6]; [8]
  IC50: 6300 nM
[3]; [8]
  IC50: 3360 nM
[4]; [8]
  IC50: 1480 nM
[5]; [8]
  IC50: 890 nM
[7]; [8]
  IC50: 1490 nM

## SAVFKDSFL
[6]; [8]
  IC50: 6060 nM
[3]; [8]
  IC50: 231 nM
[4]; [8]
  IC50: 536 nM
[5]; [8]
  IC50: 1140 nM
[7]; [8]
  IC50: 110 nM

## SIMSMMNIT
[6]; [8]
  IC50: 7140 nM
[3]; [8]
  IC50: 4970 nM
[4]; [8]
  IC50: 681 nM
[5]; [8]
  IC50: 1760 nM
[7]; [8]
  IC50: 2370 nM

## KVDDTFYYV
[1]; [8]
  IC50: 45500 nM

## SAEVERLMEL
[6]; [8]
  IC50: 7910 nM
[3]; [8]
  IC50: 1280 nM
[4]; [8]
  IC50: 2500 nM
[5]; [8]
  IC50: 1250 nM
[7]; [8]
  IC50: 2640 nM

## KINEMVDELV
[6]; [8]
  IC50: 26400 nM
[3]; [8]
  IC50: 587 nM
[4]; [8]
  IC50: 492 nM
[5]; [8]
  IC50: 3060 nM
[7]; [8]
  IC50: 4960 nM

## LTSVDIETAI
[6]; [8]
  IC50: 6730 nM
[3]; [8]
  IC50: 509 nM
[4]; [8]
  IC50: 2150 nM
[5]; [8]
  IC50: 3130 nM
[7]; [8]
  IC50: 221 nM

## YTFAISYCRA
[6]; [8]
  IC50: 10300 nM
[3]; [8]
  IC50: 325 nM
[4]; [8]
  IC50: 38 nM
[5]; [8]
  IC50: 37 nM
[7]; [8]
  IC50: 4 nM

## LITLILSNKL
[6]; [8]
  IC50: 7660 nM
[3]; [8]
  IC50: 225 nM
[4]; [8]
  IC50: 293 nM
[5]; [8]
  IC50: 633 nM
[7]; [8]
  IC50: 1490 nM

## LNMFVSDQV
[6]; [12]
  IC50: 5760 nM
[3]; [12]
  IC50: 18 nM
[4]; [12]
  IC50: 880 nM
[5]; [12]
  IC50: 4810 nM
[7]; [12]
  IC50: 7 nM

## ALQLLLEV
[1]; [10]
  IC50: ≥ 70000 nM

## TIVSRSSRGV
[6]; [8]
  IC50: 11300 nM
[3]; [8]
  IC50: 4700 nM
[4]; [8]
  IC50: 11 nM
[5]; [8]
  IC50: 3740 nM
[7]; [8]
  IC50: 1260 nM

## PASISSVLTI
[6]; [8]
  IC50: 5910 nM
[3]; [8]
  IC50: 1360 nM
[4]; [8]
  IC50: 83 nM
[5]; [8]
  IC50: 1550 nM
[7]; [8]
  IC50: 4510 nM
